Measured values from publication PMC3056158.

Molecular target: SPNct, C-terminal glycohydrolase domain of Streptococcus pyogenes beta-NAD+ glycohydrolase (SPN), residues 191-451 (Streptococcus pyogenes)
Assay: crystal structure

B1: Immunity factor for SPN (IFS), full length, residues 1-161 (natural protein)
chain: MYKVPKGLEHYQKMFQKEVTVNDLKKYLIGSDKEYRITRRDSYMGDISDPEVILEYGVYPAFIKGYTQLKANIEEALLEMSNSGQALDIYQAVQTLNAENMLLNYYESLPFYLNRQSILANITKALKDAHIREAMAHYKLGEFAHYQDTMLDMVERTIETF
modifications: selenomethionine in place of methionine in the derivative used for MAD phasing
  stoichiometry N: 1
